The values that follow come from patent publication US20240327544A1 (BIONTECH, published 2024).

Several values for one entry are separate records, joined by “and”; a condition that tells them apart may be missing. Equal values may be shown once.

Assay [1] concerns the target T1, C1q (complement protein C1q from human serum) (human, UniProt P02745 23-245; P02746 28-253; P02747 29-245).
T1 construct: Human serum (20%) was the source of C1q
Briefly: flow cytometry, activated human CD8+ T cells, FITC anti-C1q.

Assay [2] addresses human PD-1, full-length, expressed on cells (human, UniProt Q15116 25-288). Briefly: cell-based or functional assay.

Sequence of human PD-1, full-length, expressed on cells (Q15116 25-288 limits assumed): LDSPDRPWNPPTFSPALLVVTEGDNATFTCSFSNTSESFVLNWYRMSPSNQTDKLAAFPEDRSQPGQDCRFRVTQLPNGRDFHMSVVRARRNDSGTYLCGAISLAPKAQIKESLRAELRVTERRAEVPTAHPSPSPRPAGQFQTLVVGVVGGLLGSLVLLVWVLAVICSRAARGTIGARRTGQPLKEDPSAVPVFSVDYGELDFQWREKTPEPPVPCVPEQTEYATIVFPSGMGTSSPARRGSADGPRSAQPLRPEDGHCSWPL
T1 sequence (P02745 23-245 limits assumed, chain 1 of 3): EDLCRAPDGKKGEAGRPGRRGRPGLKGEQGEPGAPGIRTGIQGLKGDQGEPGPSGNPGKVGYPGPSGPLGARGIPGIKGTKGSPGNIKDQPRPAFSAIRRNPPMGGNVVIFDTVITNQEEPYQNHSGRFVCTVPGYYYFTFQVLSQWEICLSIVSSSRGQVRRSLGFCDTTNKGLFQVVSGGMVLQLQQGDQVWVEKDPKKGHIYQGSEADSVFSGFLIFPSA
T1 sequence (P02746 28-253 limits assumed, chain 2 of 3): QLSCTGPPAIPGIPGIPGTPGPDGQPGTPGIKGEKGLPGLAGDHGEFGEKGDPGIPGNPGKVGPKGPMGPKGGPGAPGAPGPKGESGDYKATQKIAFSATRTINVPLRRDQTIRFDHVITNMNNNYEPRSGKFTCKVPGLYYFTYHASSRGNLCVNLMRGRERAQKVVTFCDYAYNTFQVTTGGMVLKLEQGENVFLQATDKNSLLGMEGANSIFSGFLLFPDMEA
T1 sequence (P02747 29-245 limits assumed, chain 3 of 3): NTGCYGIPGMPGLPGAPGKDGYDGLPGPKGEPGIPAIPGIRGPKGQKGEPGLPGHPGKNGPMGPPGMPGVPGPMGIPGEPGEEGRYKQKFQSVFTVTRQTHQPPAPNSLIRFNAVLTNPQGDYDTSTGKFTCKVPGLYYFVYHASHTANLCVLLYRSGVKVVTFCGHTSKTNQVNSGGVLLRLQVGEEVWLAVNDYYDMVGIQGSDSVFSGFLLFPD

B1: IgG1-PD1 (antibody)
heavy: QVQLVESGGGLVQPGTSLRLSCSVSGFSLYSYNMGWVRQAPGKGLEYIGIISGGTIGHYASWAKGRFTISRDTSKTTLYLQMNSLTTEDTATYFCARAFYDDYDYNVWGPGTLVTVSSASTKGPSVFPLAPSSKSTSGGTAALGCLVKDYFPEPVTVSWNSGALTSGVHTFPAVLQSSGLYSLSSVVTVPSSSLGTQTYICNVNHKPSNTKVDKRVEPKSCDKTHTCPPCPAPEFERGPSVFLFPPKPKDTLMISRTPEVTCVVVDVSHEDPEVKFNWYVDGVEVHNAKTKPREEQYNSTYRVVSVLTVLHQDWLNGKEYKCKVSNKALPAPIEKTISKAKGQPREPQVYTLPPSREEMTKNQVSLTCLVKGFYPSDIAVEWESNGQPENNYKTTPPVLDSDGSFFLYSKLTVDKSRWQQGNVFSCSVMHEALHNHYTQKSLSLSPG
light: AIQLTQSPSSLSASVGGTVTITCQSSQSVYGNNQLSWYQQKPGQPPKLLIYQASKLETGVPSRFRGSGSGTQFTLTISSLQSEDFATYYCAGGYSSSSDTTFGGGTEVVVKRTVAAPSVFIFPPSDEQLKSGTASVVCLLNNFYPREAKVQWKVDNALQSGNSQESVTEQDSKDSTYSLSSTLTLSKADYEKHKVYACEVTHQGLSSPVTKSFNRGEC
notes: Humanized rabbit anti-PD-1 antibody, Fc-inert IgG1 kappa; also called MAB-19-0618 variable regions in a human IgG1m(f) L234F/L235E/G236R (FER) backbone
Take B1: the binding result in assay [1] was “no binding (tested: antibody up to 30 µg/mL, 20% human serum)”. In addition, the “EC50 of PD-1/PD-L1 checkpoint blockade (luminescence, PD-1/PD-L1 blockade reporter assay)” value in assay [2] was 0.165 µg/mL and 1.12 nM.
